What all share (assay): SPR
In general terms: In SPR one partner is held on a chip, and binding of the other changes the refractive index at the surface.

Assay [1] concerns the target HLA-B*08:01.N80I.R82L.G83R/FLR (human | not stated | EBV).
Assay [2] has as its target HLA-B*08:01.R82L/FLR (human | not stated | EBV).
Assay [3] deals with HLA-B*08:01.N80I.R82L.G83R/FLR (human | not stated | EBV). The source holds these as a separate data set.

Where two headings read alike, the source gives them in different places.

As for “Soluble KIR3DL1*001 (from UniProt P43629 22-340) (receptor)”, the results for the Kd in assay [1], in assay [2] and in assay [3] were 41.9 µM, > 300 µM and 40.1 µM, respectively.

The record behind these values is paper PMC4282956.
